This note sets out measurements from publication PMC10404699, “SAMHD1 impairs type I interferon induction through the MAVS, IKKε, and IRF7 signaling axis during viral infection” (The Journal of Biological Chemistry, 2023).

The target of this assay is T1, recombinant N-terminal His-tagged full-length SAMHD1 (human, UniProt Q9Y3Z3 1-626).
T1 construct: also called recombinant FL SAMHD1; recombinant SAMHD1
The assay is described as follows: pull-down; in vitro pull-down of purified recombinant proteins with an anti-SAMHD1 antibody, analyzed by immunoblot; performed as described in ref. 16. To be noted: both partners purified. (A western blot detects proteins with antibodies after separation by electrophoresis.)

T1 sequence (Q9Y3Z3 whole entry): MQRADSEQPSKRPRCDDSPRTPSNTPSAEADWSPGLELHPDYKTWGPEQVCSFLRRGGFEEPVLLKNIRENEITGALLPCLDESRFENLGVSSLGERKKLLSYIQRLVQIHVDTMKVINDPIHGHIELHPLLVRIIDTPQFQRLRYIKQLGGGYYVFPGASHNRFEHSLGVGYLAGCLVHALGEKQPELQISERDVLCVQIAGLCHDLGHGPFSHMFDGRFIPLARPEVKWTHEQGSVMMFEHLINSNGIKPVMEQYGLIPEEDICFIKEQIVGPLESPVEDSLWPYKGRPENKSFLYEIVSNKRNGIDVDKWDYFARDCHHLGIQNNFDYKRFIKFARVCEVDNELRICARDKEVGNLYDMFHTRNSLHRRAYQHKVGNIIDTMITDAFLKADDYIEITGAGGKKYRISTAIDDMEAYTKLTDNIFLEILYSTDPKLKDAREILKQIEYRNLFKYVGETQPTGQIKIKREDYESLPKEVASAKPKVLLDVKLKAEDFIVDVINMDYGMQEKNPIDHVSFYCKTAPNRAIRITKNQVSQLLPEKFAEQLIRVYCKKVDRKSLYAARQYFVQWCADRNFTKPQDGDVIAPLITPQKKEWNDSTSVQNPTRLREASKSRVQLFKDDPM

B1: purified His-tagged MAVS without the TM domain (aa 1-513) (domain or fragment, human, UniProt Q7Z434 1-513, looked up)
chain: MPFAEDKTYKYICRNFSNFCNVDVVEILPYLPCLTARDQDRLRATCTLSGNRDTLWHLFNTLQRRPGWVEYFIAALRGCELVDLADEVASVYQSYQPRTSDRPPDPLEPPSLPAERPGPPTPAAAHSIPYNSCREKEPSYPMPVQETQAPESPGENSEQALQTLSPRAIPRNPDGGPLESSSDLAALSPLTSSGHQEQDTELGSTHTAGATSSLTPSRGPVSPSVSFQPLARSTPRASRLPGPTGSVVSTGTSFSSSSPGLASAGAAEGKQGAESDQAEPIICSSGAEAPANSLPSKVPTTLMPVNTVALKVPANPASVSTVPSKLPTSSKPPGAVPSNALTNPAPSKLPINSTRAGMVPSKVPTSMVLTKVSASTVPTDGSSRNEETPAAPTPAGATGGSSAWLDSSSENRGLGSELSKPGVLASQVDSPFSGCFEDLAISASTSLGMGPCHGPEENEYKSEGTFGIHVAENPSIQLLEGNPGPPADPDGGPRPQADRKFQEREVPCHRPSP
notes: also called MAVS without TM; recombinant MAVS without the TM domain; source: bought: Origene (AR50771PU-N); purified from E. coli
Consider B1, for which the binding result is listed as “binds”.
